We go through four substances from patent publication US20210292396A1.

Where “and” joins values, the source holds several entries; their conditions need not be identical. Equal values may be shown once.

For the assay, the target named is gp120 (isolate: 92BR020) (HIV).
As usually defined, the EC50 (read off the curve) is the concentration at which the effect is half-maximal. A higher EC50 (read off the curve) goes with a less potent agent. Turning to 2G12 (antibody), the EC50 (read off the curve) turned out to be 0.07 µg/mL. Consider PGT128 (antibody), for which the EC50 (read off the curve) was found to be 0.05 µg/mL. The EC50 (read off the curve) values of the last two substances are within 1.5-fold of each other. As for PGT135 (antibody), the figure is 0.05 µg/mL and 0.1 µg/mL; as for VRC01 (antibody), 0.07 µg/mL.
